Laboratory results reported in patent US20090239765A1, “GENES WHOSE EXPRESSION IS INCREASED IN RESPONSE TO STIMULATION BY CORTICOTROPIN-RELEASING HORMONE” (priority 2003, published 2009).
Values belong to the compound of their own block, whether it stands above or below them.

Experiments:
CRH-R1 [1] = molecular target: T1, CRH-R1 (Mus musculus, UniProt P35347); test: Microarray transcriptional response to CRH in AtT-20 cells (Murine Genome U74Av2 arrays); format: cell-based
T1 construct: host or cells: AtT-20 (murine pituitary corticotroph adenoma cells)
T1 sequence (P35347 24-415): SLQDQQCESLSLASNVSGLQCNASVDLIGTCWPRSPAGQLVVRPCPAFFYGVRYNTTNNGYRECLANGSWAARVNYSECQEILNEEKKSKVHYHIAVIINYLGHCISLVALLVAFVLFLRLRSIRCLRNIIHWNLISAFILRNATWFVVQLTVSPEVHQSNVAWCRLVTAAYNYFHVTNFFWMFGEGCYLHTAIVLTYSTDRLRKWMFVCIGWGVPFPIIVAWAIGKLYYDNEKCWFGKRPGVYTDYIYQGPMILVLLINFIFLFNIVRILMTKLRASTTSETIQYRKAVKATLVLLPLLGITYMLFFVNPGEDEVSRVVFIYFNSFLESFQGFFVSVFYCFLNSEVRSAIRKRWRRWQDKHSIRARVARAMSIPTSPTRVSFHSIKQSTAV
Description: (§1) Cell culture and sample preparation—AtT-20 cells were purchased from ATCC and were maintained at 37° C. in 5% CO2 in humidified air in Dulbecco's modified Eagle's medium (Invitrogen Life Technologies) containing 10% fetal bovine serum, 50% horse serum and 4.5 g/L D-glucose. For experiments cells were seeded in 25 cm^2 flasks. The medium was replaced 48 h later and cells were treated with either 0.1% DMSO, 1 μM CRH (Sigma) in DMSO, 1 μM R121919 in DMSO or 1 μM CRH+1 μM R121919 in DMSO for 0, 0.5, 1, 2, 4, 8 and 24 h in fresh medium. The incubation was stopped by aspirating the incubation medium and adding 3 ml Trizol (Invitrogen Life Technologies) for lysis of the cells. Total RNA was extracted using Trizol according to the instructions of the manufacturer. 100 μg total RNA was further purificied using Rneasy kit (Qiagen) with DNAseI treatment on column.
Microarray hybridization—cRNA was prepared as follows. Reverse transcription was performed on 10 μg of total RNA for 1 h at 42° C. using a T7-oligo(dT)24-primer and SuperscriptII RT (Invitrogen Life Technologies). Second strand cDNA synthesis was done for 2 h at 16° C. using Escherichia coli DNA Polymerase I, DNA ligase and RNAseH (Invitrogen Life Technologies). After phenol-chloroform extraction using phase-lock gel (Eppendorf) in vitro transcription was performed for 6 h at 37° C. using the Bioarray high-yield RNA transcript labeling kit with Biotin labeled ribonucleotides (Enzo Diagnostics). cRNA samples were purified on Qiagen Rneasy columns followed by fragmentation for 35 min at 95° C. cRNA yields were between 50 and 100 μg. Samples were processed on GeneChips (Affymetrix, Santa Clara, Calif.). In order to check the quality of each sample, 5 μg of labeled cRNA was run on Test2-arrays. Actual experiments were performed on Murine Genome U74Av2 arrays, containing probe sets interrogating approximately 12,000 full-length mouse genes and EST clusters from the UniGene database (Build 74). Hybridization was performed using 15 μg CRNA for 16 h at 45° C. under continuous rotation. Arrays were stained in Affymetrix Fluidics stations using Streptavidin/Phycoerythrin (SAPE) followed by staining with anti-streptavidin antibody and a second SAPE staining. Subsequently arrays were scanned with a HP-Laserscanner and data were analyzed with the Microarray Suite Software (Affymetrix). No scaling or normalization was performed at this stage. Quality of the experiment was assessed based on the percentages present calls across all samples which was on average 47.06±2.45%. The cytoplasmic β-actin and GAPDH 5′/3′ ratios were 1.10±0.08 and 0.93±0.05 respectively.
Basically this alignment sets the average intensity of one array to the average measured across all arrays, compensating for array to array variations in hybridization, washing and staining, ultimately allowing a reasonable comparison between arrays. After alignment polished data were analyzed using weighted spectral mapping. Weighted spectral mapping is an unsupervised multivariate analysis method which includes double-centering of the data combined with a specialized visualization representing the two highest principle components. Even though double-centering removes the “size” component of the array data, this information is reintroduced in the visualization via the area of the symbols representing the size of the respective samples and genes. This method allows the reduction of a large microarray dataset and provides means to visually inspect and thereby identify clusters of genes and/or subjects in the data (7). A more detailed analysis was carried out using the OmniViz program. All records which were absent in all experiments were removed and all signals less than 20 were set to 20. Gene expression fold differences for CRH, R121919 and CRH+R121919 treatments were calculated at each timepoint. For those calculations signals at corresponding timepoints in DMSO treated samples were used to calculate ratios. […]

CRH-R1 [2] = molecular target: T1, CRH-R1; test: c-fos mRNA levels by quantitative RT-PCR in AtT-20 cells; format: cell-based, murine
Description: as §1, with “100 μg total RNA was further purificied using Rneasy kit (Qiagen) with DNAseI treatment on column.” left out
Quantitative RT-PCR—Microarray data were confirmed using real time PCR analysis. […] Quantitative PCR was performed on a ABIPrism 7700 cycler (Applied Biosystems) using a Taqman PCR kit. […] A linear regression line calculated from the standard curves allowed the determination of transcript levels in RNA samples from the different time points.
Transcriptional response to CRH was studied in the CRH-R1-expressing murine AtT-pituitary corticotroph-derived adenoma cell line. Whereas CRH-R1 was readily detectable both by real time quantitative RT-PCR (RTq) and western blot, CRH-R2 expression could not be discerned in AtT-20 cells. […]

CRF1 mRNA = CRF1 mRNA in AtT-20 cells exposed to CRF; format: cell-based, murine; conditions: AtT-20 cells exposed to 1 μM CRF
Description: as §1
Quantitative RT-PCR—Microarray data were confirmed using real time PCR analysis. First strand cDNA synthesis was performed on 0.5 μg total RNA using random hexamer primers and SuperscriptII RT (Invitrogen Life Technologies). Quantitative PCR was performed on a ABIPrism 7700 cycler (Applied Biosystems) using a Taqman PCR kit. […] A linear regression line calculated from the standard curves allowed the determination of transcript levels in RNA samples from the different time points.

[3] = molecular target: corticotropin-releasing hormone receptor 1 (CRH-R1), endogenous on murine AtT-20 cells (murine) (UniProt P35347); test: cell-based or functional assay

suppression of CRH-induced transcriptional responses (microarray) (CRH-R1 [1]; 1 μM CRH + 1 μM R121919): suppressed | suppression of CRH-elicited c-fos transcription (CRH-R1 [2]; 1 μM CRH in the presence of 1 μM R121919): almost completely suppressed
Compound: CCCN(CCC)c1cc(C)nc2c(-c3cnc(N(C)C)cc3C)c(C)nn12 [R121919]

number of regulated genes (greater than 2-fold change in transcript levels at any one time point, relative to DMSO, differing from antagonist treatment) (CRH-R1 [1]; 1 μM CRH, 0.5 to 24 h): 111 genes | number of intermediate responders (responding after 1 to 2 hours of treatment) (CRH-R1 [1]; 1 μM CRH, 1 to 2 hours): 32 genes | number of early responders (2-fold change after 30 minutes treatment) (CRH-R1 [1]; 1 μM CRH, 30 minutes): 26 genes | number of late responders (response after 2 hours or more) (CRH-R1 [1]; 1 μM CRH, 2 hours or more): 53 genes | direction of regulation of all responder genes (CRH-R1 [1]; after exposure to CRH): up regulated | c-fos transcription (c-fos mRNA levels by RTq) (CRH-R1 [2]; 1 μM CRH, levels already going down after 0.5 to 1 h): transient surge
Compound: CRH: Corticotropin releasing hormone, a 41-amino acid polypeptide (Sigma)
alterations in CRF1 mRNA (CRF1 mRNA): not detect any alterations

microarray gene expression in AtT-20 cells (greater than 2-fold change in transcript levels against DMSO) [3]: 111 genes
Compound: corticotropin-releasing hormone (CRH) (ligand)
